In paper doi:10.1101/2024.04.22.590536 (bioRxiv, 2024):
Where no end group is shown, it is not given here.

Target: T1, GST-tagged Ifh1 activation domain (AA 703-811) (S. cerevisiae, UniProt P39520 703-811)
T1 sequence (looked up): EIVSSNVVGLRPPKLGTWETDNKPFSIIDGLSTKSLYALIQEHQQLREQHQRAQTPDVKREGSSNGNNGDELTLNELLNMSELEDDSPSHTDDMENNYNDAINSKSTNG
Experiment: fluorescence polarisation

Kd: ~1400 nM
Binder: NNNSRNNFNNRRGGRGARKGNNTANATNSANTVQKNRNIDVSNLPSLA (peptide, UniProt P39015 226-273, looked up, also: TAMRA label, position not given here) [TAMRA-labelled Stm1-IDR peptide (AA 226-273)]
